Assay results taken from PMC6520365, “Structural and functional characterization of the PDZ domain of the human phosphatase PTPN3 and its interaction with the human papillomavirus E6 oncoprotein” (Scientific Reports, 2019).
Marks after values point to notes of the source that are not given here.

B1: PTPN3-PDZ: recombinant PDZ domain of human PTPN3 expressed in E. coli (protein)
chain: GDSYLVLIRITPDEDGKFGFNLKGGVDQKMPLVVSRINPESPADTCIPKLNEGDQIVLINGRDISEHTHDQVVMFIKASRESHSRELALVIRRRAVRSFADFKSEDELNQLFPEAIFPMCPEGGDTLEGSMAQLKKGLESGTVLIQFEQLYRKKPGLAITFAKLPQNLDKNRYKDVLPYDTTRVLLQGNEDYINASYVNMEIPAANLVNKYIATQGPLPHTCAQFWQVVWDQKLSLIVMLTTLTERGRTKCHQYWPDPPDVMNHGGFHIQCQSEDCTIAYVSREMLVTNTQTGEEHTVTHLQYVAWPDHGVPDDSSDFLEFVNYVRSLRVDSEPVLVHCSAGIGRTGVLVTMETAMCLTERNLPIYPLDIVRKMRDQRAMMVQTSSQYKFVCEAILRVYEEGLVQMLDPS
modifications: left off: GST, N-terminal, cleaved
notes: recombinant PDZ domain of human PTPN3 expressed in E. coli
B2: PTPN3-PDZNext: PTPN3-PDZ extended at the N-terminal extremity by 15 residues with its wild-type upstream sequence (protein)
chain: STEDASQYYCDKNDNGDSYLVLIRITPDEDGKFGFNLKGGVDQKMPLVVSRINPESPADTCIPKLNEGDQIVLINGRDISEHTHDQVVMFIKASRESHSRELALVIRRRAVRSFADFKSEDELNQLFPEAIFPMCPEGGDTLEGSMAQLKKGLESGTVLIQFEQLYRKKPGLAITFAKLPQNLDKNRYKDVLPYDTTRVLLQGNEDYINASYVNMEIPAANLVNKYIATQGPLPHTCAQFWQVVWDQKLSLIVMLTTLTERGRTKCHQYWPDPPDVMNHGGFHIQCQSEDCTIAYVSREMLVTNTQTGEEHTVTHLQYVAWPDHGVPDDSSDFLEFVNYVRSLRVDSEPVLVHCSAGIGRTGVLVTMETAMCLTERNLPIYPLDIVRKMRDQRAMMVQTSSQYKFVCEAILRVYEEGLVQMLDPS
modifications: left off: GST, N-terminal, cleaved

Key:
Assay type in all cases: physicochemical, human
[1] = AUC sedimentation velocity of free PTPN3 PDZ constructs; conditions: 20 °C
Procedure: To estimate the oligomeric state of the PTPN3-PDZ construct, analytical ultracentrifugation (AUC) experiments were performed (Table 2). Three different concentrations of the protein were tested, 10, 25 and 70 μM. Only one single peak was detected at 10 μM with a sedimentation coefficient of 1.5S in agreement with a monomeric form of 10.5 kDa. At 25 μM, an additional peak was detected with a sedimentation coefficient of 2.6S corresponding to a dimeric form.
Sedimentation velocity experiments were carried out at 20 °C using a Beckman Coulter XL-I centrifuge equipped with a AN60-Ti rotor. Various protein and protein–peptide complex concentrations (protein concentrations ranging from 12.5 to 70 μM) samples were centrifuged for 17 h at 42000 rpm. Data were analyzed with SEDFIT 15.1 using a continuous size distribution c(S) model. The partial specific volume, the viscosity and the density of the samples were calculated with […]. The processed data were used to obtain values of sedimentation coefficients at null concentration in our experimental conditions (S0) and to get the standard sedimentation coefficients in water at 20 °C (S0,w,20) (Table 2).

[2] = Aggregation/stability followed by NMR HSQC spectra at 20 °C
Procedure: To evaluate the stability of PTPN3-PDZ, we performed differential scanning calorimetry (DSC) (Fig. 2C). […] As a comparison, we performed DSC on PTPN4-PDZ. We obtained an endothermic peak with a Tm of 47 °C (Fig. 2C). […] This thermal instability of the PTPN3-PDZ construct could be responsible for its aggregation previously detected by NMR.
The instability and tendency to oligomerize of PTPN3-PDZ made this construct unsuitable for crystallogenesis. To gain in stability and protein expression yield, we extended the N-terminal extremity of PTPN3-PDZ by 15-residues with its wild-type upstream sequence (PTPN3-PDZNext in Fig. 1). These extensions have been reported to provide structural stability to some PDZ containing proteins[13],[14]. The PTPN3-PDZ production yield was increased two-fold after extension from 0.9 mg to 1.8 mg of purified protein per liter of culture. The stability of PTPN3-PDZNext was then evaluated by NMR HSQC spectra recorded during a week at 20 °C. […] The additional peaks of the N-terminal extension residues fall in the spectral region characteristic of unfolded protein and no chemical shift differences between PTPN3-PDZNext and the shorter form are detected.
A series of ^1H, ^15N HSQC spectra was recorded over a week at 20 °C for a sample of PTPN3-PDZNext at 170 μM to follow the stability of the construct.

[3] = DSC of free PDZ domain (thermal stability); conditions: 21 μM free PTPN3-PDZ, 18 μM PTPN4-PDZ, scan rate 200 °C/h, buffer A pH 7.5, repeated three times
Procedure: DSC experiments were carried out on a Microcal VP-capillary DSC (Malvern). 18, 21, 94 and 28 μM of PTPN4-PDZ, free PTPN3-PDZ, free PTPN3-PDZNext and PTPN3-PDZ complexed with peptides respectively were scanned from 10 °C to 90–100 °C with a scan rate of 200 °C/h. Large excess of peptides were used: about 600 μM for p38γ PBM, about 300 μM for HBVc PBM and HPV16E6 PBM and about 200 μM for HPV18E6 PBM. The buffer A was repeatedly scanned to ensure a stable buffer baseline. The buffer baseline was subtracted from the protein thermogram. Subsequent to normalization of the data by the protein concentration, a non-linear curve fitting algorithm was employed to obtain the Tm of the transition. All experiments were repeated three times.

[4] = AUC sedimentation velocity of free PTPN3 PDZ constructs; conditions: 20 °C; remark: listed apart in the source
[5] = PTPN3-PDZ 25 μM, two peaks are present

| Molecule | MW estimated ([1]; PTPN3-PDZ 10 μM, 42000 rpm) | Sed coef (S0,w,20) ([1]; PTPN3-PDZ 10 μM, standard coefficient in water at 20 °C) | MW estimated [1, 5] | Sed coef (S0,w,20) [1, 5] | oligomeric state of free PTPN3-PDZ ([1]; PTPN3-PDZ 70 μM) | aggregation by HSQC peak intensity ([2]; after 10 h at 20 °C, data not shown) | Tm (thermal transition midpoint), free PDZ domain [3] | MW estimated ([4]; PTPN3-PDZNext 17.5 μM) | Sed coef (S0,w,20) ([4]; PTPN3-PDZNext 17.5 μM) | MW estimated ([4]; PTPN3-PDZNext 35 μM) | Sed coef (S0,w,20) ([4]; PTPN3-PDZNext 35 μM) | MW estimated ([4]; PTPN3-PDZNext 70 μM) | Sed coef (S0,w,20) ([4]; PTPN3-PDZNext 70 μM) | oligomeric state of free PTPN3-PDZNext ([4]; PTPN3-PDZNext between 17.5 μM and 70 μM) | aggregation by HSQC peak intensity ([2]; HSQC recorded during a week at 20 °C, PTPN3-PDZNext 170 μM) |
| --- | --- | --- | --- | --- | --- | --- | --- | --- | --- | --- | --- | --- | --- | --- | --- |
| B1 | 12.4 kDa | 1.5 S | 11.3–25.9^a kDa | 1.5–2.6^a S | higher oligomeric species could be detected | significant loss of peak intensities | 41 °C |  |  |  |  |  |  |  |  |
| B2 |  |  |  |  |  |  |  | 12.7 kDa | 1.6 S | 12.5 kDa | 1.7 S | 15 kDa | 1.6 S | devoid of higher oligomeric species | without any signs of aggregation |
